5 molecules from US20220177577A1 can be followed below.

The chains are these.
B1: CK6-SET0207 (antibody, V domains shown)
VH: QVQLVQSGAAVKKPGESLKISCKGSGYRFTSYWIGWVRQMPGKGLEWMGIIYPGDSDTRYSPSFQGQVTISAGKSISTAYLQWSSLKASDTAMYYCARHGRGYNGYEGAFDIWGQGTMVTVSS
VL: AIQLTQSPSSLSASVGDRVTITCRASQGISSALAWYQQKPGKAPKLLIYDASSLESGVPSRFSGSGSGTDFTLTISSLQPEDFATYYCQQFNSYPLTFGGGTKVEIK
modifications: here or on the partner: SET0207 payload ('Non-cleavable natural') conjugated, Fc modification D265C H435A, DAR 2.0
B2: CK6 S239C-PNU (antibody, V domains shown)
VH: B1 VH
VL: B1 VL
modifications: here or on the partner: PNU (DNA topoisomerase I/II inhibitor) conjugated, Fc modification S239C (printed S2390 in Table 4), DAR 1.4
B3: CK6 S239C-DM (antibody, V domains shown)
VH: B1 VH
VL: B1 VL
modifications: here or on the partner: duocarmycin (DM) conjugated, Fc modification S239C, DAR 1.65
B4: CK6 S239C-PBD (antibody, V domains shown)
VH: B1 VH
VL: B1 VL
modifications: here or on the partner: PBD (DNA cross linker) conjugated, Fc modification S239C, DAR 1.7
B5: CK6 S239C-D4 (antibody, V domains shown)
VH: B1 VH
VL: B1 VL
modifications: here or on the partner: calicheamicin (D4) conjugated, Fc modification S239C, DAR 1.72

Sequence of CD117 on Kasumi-1 cells and on primary human CD34+ bone marrow cells (human), P10721 (P10721 26-976): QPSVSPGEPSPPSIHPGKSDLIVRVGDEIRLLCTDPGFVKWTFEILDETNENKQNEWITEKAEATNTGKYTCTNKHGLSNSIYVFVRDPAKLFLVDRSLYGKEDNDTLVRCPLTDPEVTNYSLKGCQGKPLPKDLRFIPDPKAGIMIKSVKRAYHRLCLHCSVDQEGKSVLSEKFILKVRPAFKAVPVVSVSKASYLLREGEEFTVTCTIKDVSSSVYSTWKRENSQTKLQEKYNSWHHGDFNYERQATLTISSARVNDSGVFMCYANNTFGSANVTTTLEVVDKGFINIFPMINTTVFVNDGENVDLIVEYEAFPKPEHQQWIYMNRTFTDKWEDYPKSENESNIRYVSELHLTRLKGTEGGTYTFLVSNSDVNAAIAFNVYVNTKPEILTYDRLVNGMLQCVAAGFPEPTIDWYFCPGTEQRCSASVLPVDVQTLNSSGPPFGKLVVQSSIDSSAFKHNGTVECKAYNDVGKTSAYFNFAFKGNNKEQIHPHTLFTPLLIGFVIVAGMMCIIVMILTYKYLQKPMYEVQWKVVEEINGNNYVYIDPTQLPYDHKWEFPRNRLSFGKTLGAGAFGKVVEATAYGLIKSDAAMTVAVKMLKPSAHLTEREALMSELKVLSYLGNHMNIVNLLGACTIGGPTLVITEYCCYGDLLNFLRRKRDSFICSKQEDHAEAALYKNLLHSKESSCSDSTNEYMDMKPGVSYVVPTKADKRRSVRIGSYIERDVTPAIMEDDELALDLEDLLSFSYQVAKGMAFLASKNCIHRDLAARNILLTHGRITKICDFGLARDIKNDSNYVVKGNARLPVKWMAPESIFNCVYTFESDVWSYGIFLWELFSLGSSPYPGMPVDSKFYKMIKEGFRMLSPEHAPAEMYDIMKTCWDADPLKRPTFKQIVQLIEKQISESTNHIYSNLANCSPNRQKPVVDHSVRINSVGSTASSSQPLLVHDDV

The test addresses CD117 on Kasumi-1 cells and on primary human CD34+ bone marrow cells (human), P10721. Nature of the test: cell-based or functional assay.
B1 yielded a % Efficacy, in vitro Kasumi cell killing assay of 0% and a % Efficacy, in vitro hCD34 cell killing assay of 9.18%.
On to B2, for which the % Efficacy, in vitro Kasumi cell killing assay was 85.7% and the % Efficacy, in vitro hCD34 cell killing assay was 74.4%.
The molecule B3 came in with a % Efficacy, in vitro Kasumi cell killing assay of 0% and a % Efficacy, in vitro hCD34 cell killing assay of 66.2%.
In the same order, the values of B4 are 60.7% and 97.3%.
For B5 the same measures were 0% and 52.3%.
